Test results as given in US20220168402A1, “PIP4Ks SUPPRESS INSULIN SIGNALING AND ENHANCE IMMUNE FUNCTION THROUGH A CATALYTIC-INDEPENDENT MECHANISM” (Cornell University, priority 2019, published 2022).

T1: PIP5K1A (purified, in vitro kinase assay), Q99755
T1 chain: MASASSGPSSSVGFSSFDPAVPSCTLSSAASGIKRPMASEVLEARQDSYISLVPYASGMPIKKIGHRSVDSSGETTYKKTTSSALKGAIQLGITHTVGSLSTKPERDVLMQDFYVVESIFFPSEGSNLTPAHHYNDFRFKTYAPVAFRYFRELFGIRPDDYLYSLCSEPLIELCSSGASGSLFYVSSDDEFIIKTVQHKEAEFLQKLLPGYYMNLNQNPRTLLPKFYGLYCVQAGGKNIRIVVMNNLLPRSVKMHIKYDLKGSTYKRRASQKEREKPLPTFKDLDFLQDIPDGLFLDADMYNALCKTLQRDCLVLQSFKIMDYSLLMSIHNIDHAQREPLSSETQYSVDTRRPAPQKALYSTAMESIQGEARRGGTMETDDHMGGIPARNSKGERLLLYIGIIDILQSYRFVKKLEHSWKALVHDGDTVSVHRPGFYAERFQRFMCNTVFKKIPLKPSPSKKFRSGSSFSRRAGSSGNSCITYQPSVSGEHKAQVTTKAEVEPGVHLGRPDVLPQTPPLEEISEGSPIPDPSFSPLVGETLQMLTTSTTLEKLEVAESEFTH


How the values were obtained:
[1] = target: PIP5K1A (purified, in vitro kinase assay) (UniProt Q99755)
PIP5K1A = target: T2, PIP5K1A (Homo sapiens, UniProt Q99755); assay: In vitro kinase assay: conversion of PI(4)P to radiolabeled PI(4,5)P2 by PIP5K1A with purified PIP4K proteins added; type: biochemical; conditions: for inhibition of PIP5K1A activity (PI(4)P to PI(4,5)P2): purified proteins, PI(4)P liposomes, 2-10 fold molar excess of PIP4K
T2 construct: made in house; host or cells: E. coli
Description: BL21 bacterial cells were transfected with pGEX vectors with PIP4K isoform coding sequence variants. Cells were grown in 1 L of TB at 37° at 200 rpm until 0.8 OD, at which point 500 uL of 1M IPTG was added. Cultures were shaken overnight at room temp for protein induction and pelleted at 5000 g for 15 minutes. Cells were lysed (50 mM Tris pH 7.5, 500 mM NaCl, 10 mM MgCl2, 10% glycerol, DTT, lysozyme, protein/phosphatase inhibitors), sonicated for 1 minute (output 4, continuous duty cycle) and spun down at 10,000 g for 1 hour. Supernatant was kept for further purification and cleavage according to manufacturer's protocol using glutathione sepharose beads.
Cells were trypsinized and normalized for cell number. Cell pellets, or E. coli purified proteins were resuspended in HNE buffer (20 mM HEPES pH 7.4, 100 mM NaCl, 0.5 mM EGTA), and sonicated in the presence of 32P-γ-ATP, and liposomes (10 ug PS, 1 ug PI(4)P in 30 mM HEPES pH 7.4, 1 mM EGTA). Liposome lipids were purchased from Avanti. Reactions were stopped by addition of 50 uL of 4N HCL. To extract lipids, 100 μL of MeOH:CHCl3 (1:1) was added and samples were vortexed 2×30 seconds. Samples were spun down at top speed for 2 min and the organic phase containing phosphatidylinositol lipids (bottom) were separated using thin-layer chromatography (TLC) using 1-propanol: 2N acetic acid (65:35 v/v). TLC plates were prepared ahead of time by coating with 1% Potassium Oxalate. Phosphorylated lipids were visualized by autoradiography on a GE Typhoon FLA 7000 and quantified using ImageQuant TL software.

[2] = target: T1, PIP5K1A (purified, in vitro kinase …)
[3] = target: endogenous PIP5K1A (293T lysate) (UniProt Q99755 1-562, limits assumed); assay: GST pulldown from 293T lysates with bead-bound bait, western blot (FIG. 3J)
Description: These lysates and purified protein were incubated together at 4 degrees for 1 hour before the beads were again pelleted, washed with IP buffer three times, eluted with 2M NaCl, and analyzed by SDS PAGE and western blot.

Row | Molecule | in vitro kinase assay: conversion of PI(4)P to radiolabeled PI(4,5)P2 by PIP5K1A (FIG. 4H) [1] | inhibition of PIP5K1A activity (PI(4)P to PI(4,5)P2) (PIP5K1A) | in vitro kinase assay: conversion of PI(4)P to radiolabeled PI(4,5)P2 by PIP5K1A (FIG. 3K) [2] | further results
1 | GST-PIP4K2C 91REN to 91EED | Mutating 74DD to be 74NN or mutating 91REN to be 91 EED within GST-PIP4K2C did not prevent this protein from inhibiting PIP5K1A |  |  | 
2 | GST-PIP4K2C 74DD to 74NN | Mutating 74DD to be 74NN or mutating 91REN to be 91 EED within GST-PIP4K2C did not prevent this protein from inhibiting PIP5K1A |  |  | 
3 | PIP4K2B (purified) (protein) MSSNCTSTTAVAVAPLSASKTKTKKKHFVCQKVKLFRASEPILSVLMWGVNHTINELSNVPVPVMLMPDDFKAYSKIKVDNHLFNKENLPSRFKFKEYCPMVFRNLRERFGIDDQDYQNSVTRSAPINSDSQGRCGTRFLTTYDRRFVIKTVSSEDVAEMHNILKKYHQFIVECHGNTLLPQFLGMYRLTVDGVETYMVVTRNVFSHRLTVHRKYDLKGSTVAREASDKEKAKDLPTFKDNDFLNEGQKLHVGEESKKNFLEKLKRDVEFLAQLKIMDYSLLVGIHDVDRAEQEEMEVEERAEDEECENDGVGGNLLCSYGTPPDSPGNLLSFPRFFGPGEFDPSVDVYAMKSHESSPKKEVYFMAIIDILTPYDTKKKAAHAAKTVKHGAGAEISTVNPEQYSKRFNEFMSNILT |  | inhibited |  | 
4 | PIP4K2C (purified) (protein) MASSSVPPATVSAATAGPGPGFGFASKTKKKHFVQQKVKVFRAADPLVGVFLWGVAHSINELSQVPPPVMLLPDDFKASSKIKVNNHLFHRENLPSHFKFKEYCPQVFRNLRDRFGIDDQDYLVSLTRNPPSESEGSDGRFLISYDRTLVIKEVSSEDIADMHSNLSNYHQYIVKCHGNTLLPQFLGMYRVSVDNEDSYMLVMRNMFSHRLPVHRKYDLKGSLVSREASDKEKVKELPTLKDMDFLNKNQKVYIGEEEKKIFLEKLKRDVEFLVQLKIMDYSLLLGIHDIIRGSEPEEEAPVREDESEVDGDCSLTGPPALVGSYGTSPEGIGGYIHSHRPLGPGEFESFIDVYAIRSAEGAPQKEVYFMGLIDILTQYDAKKKAAHAAKTVKHGAGAEISTVHPEQYAKRFLDFITNIFA |  |  | PIP5K1A, which is inhibited by PIP4K2C but not PIP4K2C^VD | 
5 | GST-PIP4K2C^VD (enzyme, the text and the Quik-2CVD primer give EIF, which is used here; not shown: glutathione S-transferase (GST) tag from a pGEX vector) MASSSVPPATVSAATAGPGPGFGFASKTKKKHFVQQKVKVFRAADPLVGVFLWGVAHSINELSQVPPPEIFLPNNFKASSKIKVNNHLFHRENLPSHFKFKEYCPQVFRNLRDRFGIDDQDYLVSLTRNPPSESEGSDGRFLISYDRTLVIKEVSSEDIADMHSNLSNYHQYIVKCHGNTLLPQFLGMYRVSVDNEDSYMLVMRNMFSHRLPVHRKYDLKGSLVSREASDKEKVKELPTLKDMDFLNKNQKVYIGEEEKKIFLEKLKRDVEFLVQLKIMDYSLLLGIHDIIRGSEPEEEAPVREDESEVDGDCSLTGPPALVGSYGTSPEGIGGYIHSHRPLGPGEFESFIDVYAIRSAEGAPQKEVYFMGLIDILTQYDAKKKAAHAAKTVKHGAGAEISTVHPEQYAKRFLDFITNIFA |  |  | PIP4K2C^VD failed to inhibit PIP5K1A activity | binding result [3]: no binding
6 | PIP4K2A (purified) (protein) MATPGNLGSSVLASKTKTKKKHFVAQKVKLFRASDPLLSVLMWGVNHSINELSHVQIPVMLMPDDFKAYSKIKVDNHLFNKENMPSHFKFKEYCPMVFRNLRERFGIDDQDFQNSLTRSAPLPNDSQARSGARFHTSYDKRYIIKTITSEDVAEMHNILKKYHQYIVECHGITLLPQFLGMYRLNVDGVEIYVIVTRNVFSHRLSVYRKYDLKGSTVAREASDKEKAKELPTLKDNDFINEGQKIYIDDNNKKVFLEKLKKDVEFLAQLKLMDYSLLVGIHDVERAEQEEVECEENDGEEEGESDGTHPVGTPPDSPGNTLNSSPPLAPGEFDPNIDVYGIKCHENSPRKEVYFMAIIDILTHYDAKKKAAHAAKTVKHGAGAEISTVNPEQYSKRFLDFIGHILT |  | inhibited |  | inhibition of PIP5K1A activity in presence of detergent (PIP5K1A; 0.1% Triton-X100, no PI(4)P liposomes): eliminated the ability of PIP4K2A to inhibit PIP5K1A
